This is an account of results in a protein production outcome set (Wang et al. 2014).

This data set in a line: label from the status in PepcDB records.
For “MLSIIIPVYNEKGNILELTSRIKSALKNNEYEIVFVDDSTDETPKIIESLALKYNNIRLKHRKGKKGLSSAVIDGFKLARGDVLSVMDGDLQHPPEMLESMLFQMKKDTDIVICSRFVLGGKEEGLNIFRKFASFIARLIGKIFLKPLRKISDPTAGFFMLKRKVIKNRDLRAIGWKILIEILVMGDYKRVVELPYSFKRRKHEKSKFTISVQGQYLKQIVSLFIRSKKYNIKLEHHHHHH”, the protein production result was “not failed”.
With “MLSIIVPSYNRKAEVPALLESLTQQTSSNFEVIIVDDCSKERVVVEQSYSFPVTVIRNETNQGAAESRNVGARTSKGDWLLFLDDDDCFMPEKCEKVLQVIEQNPNINFIYHPAKCEMVNEGFTYVTQPIEPQEISTERILLANKIGGMPMIAIKKEMFLKIGGLSTALRSLEDYDFLLKLLQEPSFTPYKINEPLTYCTFHTKRSSVSTDTTNTQKAIDYIREHYVKTVEQARNFDINASYILAYPHIMNLSRKAAKYYFDIFKKTKSIKQFIITLVILISPKLAINLKRLGK”, the protein production result is “failed”.
Regarding “MLSIMTFREFMKENGYEVKTKFWEDFSLAERFGLSAIQDTFNRAFKEWKEDYEFLTELVLVLNHKIWQYHEKRPEFAELYNTLEEQTDQYAMENLKDEELSYFFDVTDLEHHHHHH”, the protein production result is given as “not failed”.
Take “MLSKIRPKVKQPLERIGKTLASLGITPNQLTIIGFLITLLASYEFYLQNQILAGIILAVGAFLDALDGALARATGKVSKFGGFLDSTIDRLSDASILFGIALGGLVRWDVTFLTLIGSYMVSYSRCRAELAGSGTLAIGIAERGERIIIIFIASLFNAVKIGVYLVAILSWITFIQRVYEAKKRLEMG”: the protein production result is given as “failed”.
Take “MLSLAYGMVALIGYSVSFDKTTFRLLRGESNLFYTLAKWENNKLHVELPENIDKQSPTMTLIYDENGQLLWAQRDVPWLMKMIQPDWLKSNGFHEIEADVNDTSLLLSGDHSIQQQLQEVREDDDDAEMTHSVAVNVYPATSRMPKLTIVVVDTIPVELKSSYMVWSWFIYVLSANLLLVIPLLWVAAWWSLRPIEALAKEVRELEEHNRELLNPATTRELTSLVRNLNRLLKSERERYDKYRTTLTDLTHSLKTPLAVLQSTLRSLRSEKMSVSDAEPVMLEQISRISQQIGYYLHRASMHGGTLLSRELHPVAPLLDNLTSALNKVYQRKGVNISLDISPEISFVGEQNDFVEVMGNVLDNACKYCLEFVEISARQTDEHLYIVVEDDGPGIPLSKREVIFDRGQRVDTLRPGQGVGLAVAREITKQYEGKIVAGESMLGGARMEVIFGRQHSTPKDE”: the protein production result is listed as “failed”.
For “MLSLKSEVLARHLPLFNGKSILLFGNVRDRFADQIRSISSHVAIFSHYFDYARHYNDVEFGLDCTTPANLGVFYWTKNKQECHYQLLQWLSQTAIGQQMLIIGENRAGVRSVEKLLSPFGQIAKIDSARRCGLYHFELQTIPQFDCQKFWKSYRLADLTVLSLPAAFSSTELDAGSQLLLSSFTNQDRLTGNVLDLGCGAGVIGAYLKQRFPAISLTMSDIHSMAIHSAQATLAKNKLTGTVIASDVFSHINDRFDLIVSNPPFHDDIDTAYHTVESLIMQAKNHLNYGGELRIVANAFLPYPDLLDKAFGSHQVVTKSNKFKVYSARV” the value was “failed”; for “MLSLPPCRLAARRYRPLRQQNRGSSAVILYNAPSFFDCRFDCLANHRQRRWPRAGHPDRDDVMHTLEQLRAGKLCGARHLKLAENLTEFPPEIFSLKETLEVLDLTGNQLSRLPDGLAEFSKLRIIFCSENRFTELPEVLGRCPALTMVGFKANKIVTVPAASLPAGLRWLILTDNAVEQLPDELGQCGALQKLMLSGNRLRELPVTLANCQRLELVRIAANRLEALPHWLVRLPRLAWLAYAGNPFSDKQEQRLGQCASVADIPWDSLKVGELLGQGASGVIHRAELATPAGPRAVAVKCFKGAVTSDGLPRCELAVSLAAGRHPHLVGVEGRVGDHPSGIPALVMALIDPDFINLAGPPSLDSCTRDIYQADARFTPAALLAMVQGVASAALHLHGRGILHGDLYAHNMLHSLQEEGRLLLGDFGAASCYERTDGELAGLLERLEVRAFGCLLEELLARCAPCDDRLDALHALVDDCLAEVVAARPDFAEIAARLAAVAPVICAEPVLL”, “failed”; for “MLSNGKCRNNKNQVNGSLSPKMFYMRINDQIVTKYHKILTKKIREVVGTLQQPWESRRIKQAPQQPQETTSATITCDRSHTNYDLCSINGSCNLDLKTGTLTLMDPTSAPLVEKIRPYPKKADNWIMPRIRELTLTSGPLGLPRSCDITHDLPAIVFSAGGYTGSIYHDLMDGFIPLFITANSVYPDRDFIPVVVNAKEWWMPKYIDILGTFSKHKPILLLDKESVATTHCFTSAIVGLITHWPMTIDPTQIPNSKSLVDFHNLLEKAFTTNISTPKTHKPRLMLVSRYGNIGRVILNEQEIKEMLEDVGFEVIIFRPSKTTNLKEAYKLIKSSHGMVGVHGAALTHLLFLRPGSIFVQVVPLGLGWASKPCYESPAKTMKLEYLEYKVNVEESSLIEKYNRDDLVLKDPIAYRGMDWNATKMKVYLKEQDVSLDVNRFRKHMNEAYKKAKIFMDING”, “failed”.
In the case of “MLSNILPLSIGAIFGTTARWLLNLAVPASLSPATGNLFANWTGALLIGIFAETVSHPQWKLLLITGFFGSLTTLSGFSLETVTLLQSNRPASALANIFLHTAGSLLLTWLGLKIGTAVK” it was “failed”.
Regarding “MLSPCCHGQSMKTKITGKTISRIVPAEKVYRIHDTLQPGLSIRVLPSGHASYMVTWARNKAATLGRVGVITLEQARTDASRYLADAHAIGEPVAITEKRTGAAMPTLDHFLTHTFEPWAAEHHRDAKNGNRAIRHSFEALLSIPLSSIDTKRVEQIRTAWLRAGLAPSTANRNITRLRGVLSRALEWGVLQEHPLKVRKLKVDDRSRVRYLSIEEETALREALEARSNEMRDARDSANKWRLERHKEPLADLRAVRYADHLEPLVVLSINTGVRRGEAFNLTWADVDLKNKLITVEGDTSKSGQTRHVPLNREALDTLTKWKEQRGGNGFVFPGQHGKRLDNVKKSWSGLLKLAKVERFRWHDLRHTFASKLVMAGVPLNTVRELLGHTDIKMTLRYAHLAPGTKAAAVELI”, the protein production result was “failed”.
Regarding “MLSVFVVNLRSNSAPFSFSRLLMHTTIVNERSLRTCNFPITLQDIRTLKELYRLKAETRDLRKPIVRNIMKQRVVGKGCLESLKNALYSLETIYIDDYTGQRLLRIDGMKQIEVDLTYEIRELQKDIYYLEYGEDRFIEYLAKFIPGFTDYVTEGVEMLRGKSFNAFITDRDGTTNNYCGRYRSSIQPIYNSVFLSRFAKNCCRYPMIVTSAPLKDFGILNVSINPEHIFVYAGSKGREFIDIDGQFHSFPIEPGKQELIRLLNERMQLLLLDPSFEKFNFIGSALQMKFGQTTIARQDITRSVNEAESAAFLEKIKGIVRDIDPEGKNFRIEDTGLDIEIILTIDVDPKTGMIRDFDKGDGLEFICRKMNIDHTGEPVLVCGDTSSDIPMLKKAMEMYDDVWAIFVTRDEKLMQRVREICPKSYMVPYPDILLTILGLLSL”, the protein production entry is listed as “failed”.
For “MLSYYGRLSSEVYDIDKPIDHSFRDVEFYIDRLNLCRGHILEPATGTGRVLVPLLEKGFKVDGFDSSKDMLNICRDNCRKKGLNPKLFEAKMESFIQDTRYDAIIVPAGTFLLLHQRADSIRALQNFHKHLCSGGRLIIDILMQTDFSTGTVSTRTWVCSNGDLITLESKVVEVDYINQYTVSHNRYEKWREGVLIQTELERFPLRWYGLEEFKLILESTGFKDIVISSDYKFGQYPSNVKDVITFEAVAIN” the value was “failed”.
In the case of “MLTAPPKEAARPTLMPRAQSYKDLTHLPAPTGKIFVSVYNIQDETGQFKPYPASNFSTAVPQSATAMLVTALKDSRWFIPLERQGLQNLLNERKIIRAAQENGTVAINNRIPLQSLTAANIMVEGSIIGYESNVKSGGVGARYFGIGADTQYQLDQIAVNLRVVNVSTGEILSSVNTSKTILSYEVQAGVFRFIDYQRLLEGEVGYTSNEPVMLCLMSAIETGVIFLINDGIDRGLWDLQNKAERQNDILVKYRHMSVPPESLEHHHHHH” it was “failed”; in that of “MLTAQSEYVKKLRPLLPPEAFQADPKKLVILGLNLGIYVAGLTIARHLHQWPGQWLWLFLPMALLMGNSVTVFLFGSHDLMHGSVLKKRSKISYLISLLGLSLWWMPPSQWRSLHNQVHHNNTNSLRDPDRNYLHEQPKTWGKWIHHLFAPSGEVNTLWLIFGMGTAWGVHNFRNLISVLFFTGGNADFVPAAFTVKAQDRQRIWLELAAIGAVHLSILFYLQFQLIPIILGYFLPIFLGHAMGMFYIYTNHLACPMTDINDPLVNSVSLRMPKLFDCLHFNFSYHTEHHLFPDVNSDYYPLVQDLLQTHYPGQMNLLTAKEAWKMLLETPRHYQGETTLVGYNGGETIACPLPKNVPDLTETKVTASV”, “failed”.
In the case of “MLTFEKVLEIFADYLAADKTIEVYISRHGCVRVEFDQDFHYCTGEVCHTPRKLFDLLSDDYQTYLEIELTKGRRELTEDDIKEADTLCKRYLDRWKEELGLEHHHHHH” it was “not failed”.
Take “MLTIDTASRTFHCKTWVTGQTQGKAVIARERISFWGGFDPQTGRIVDPYSSLRGRDISDCVLILLSSKGSSGTSGMLSLATRAGHAPAAMIQVEMDPVTVMGCLVNNIPLLQATGFDPFEQIQDGDLVRIDGENGTITLAPGQALEHHHHHH”: the protein production entry was “not failed”.
For “MLTKLGIKGRELLLTILPASLMAAMLGGYFTWMQLSELQSQLLLRGEMIAQDLAPLSASALGRKDKVLLSRIATQTLEQPDVRAVSFLDVDRSPLAHAGPTMISPTPIGNSSQLLNSTGTDATRYLLPVFGNQRHLTSPIIPAEADTLMGWVDVEISHNGTLLRGYRSLFASLLLIFTGLAITAVVAVRLSRTINGPMSQIKQAVSQLKDGNLETRLPPLGSRELDELASGINRMAATLQNAQEELQMSIDQATEDVRQNLETIEIQNIELDLARKEALEASRIKSEFLANMSHEIRTPLNGILGFTHLLQKSELTPRQFDYLATIEKSADNLLSIINEILDFSKIEAGKLVLDNIPFNLRDLLQDTLTILAPAAHAKHLELVSLVYRDTPLALSGDPLRLRQILTNLVSNAIKFTREGTIVARAMLEDETEEHAQLRISVQDTGIGLSSQDVRALFQAFSQADNSLSRQPGGTGLGLVISKRLIEQMGGEIGVDSTPGEGSEFWISLKLPKAREDKEESLNLPLEGLRAAVLEHHDLARQALEHQLEDCGLHTVVFTNLENLLNGVTAAHETPAAIDLAVLGVTTLEISPERLRQHIWDLENLNCKVMVLCPTTEYALFQLAVHDVYTQLQAKPACTRKLQKALSELIAPRAIRADIAPPLSSRAPRVLCVDDNPANLLLVQTLLEDMGAEVMAVEGGYAAVNAVQQEAFDLVLMDVQMPGMDGRQATEAIRAWEAERGQSSLPIVALTAHAMANEKRSLLQSGMDDYLTKPISERQLAQVVLKWSGLALRNPAPERQNESLEAHVGPLVLDPEEGLRLAAGKADLAADMLAMLLASLDADREAIRVARASQDVQALIERIHRLHGATRYCGVPQLRTACQRAETLLKQDAPHTGDALDDLDKAIVRLETEARVTA” the value was “failed”; for “MLTLDLSAVRCQNGVPFLRYYWNLPVNQSHSGPLANNHAQLGLLFISVAVLFWGMLPIALKLSGSFIDPVTLTWFRFLVALIVSILVQWSAGSLKQFAALDAKVWLRLILAGLFLMLNYVSFVYSLDYLAPGAAQLNFQTSPFFLAFGGVLFFKERLNAIQLSCFASLALGMLMFFHPFLDFSATDNHEIWLGVMIVQFSALSWTTYALLQKSLLNRLSPANVLLVIYALGIFAMAPFSDFSQFAQMNSFDWQVALFCAANTLIAYGCFGQSMKYWPTAQVSAMLALTPVFSFSATALVVSIGWWPEVFRADELDALSLFGIGVIIVSVMVVQLLPLYRQRRARRLQPI”, “failed”.
For “MLTLEIFRALLLGFTIGLTGALVPGPMLFATIELSLKKGWLAGPEVVFGHILVELVLSILILFGVASFIGSGAISAVSIIGGFSLTVFGLLTVKDAKTTASAGLSPETSGLKLTSNPVALGLITSVSNPYFWIWWLTAGSALVLKAYELGIIISIAYILGHWTADLSWFTAISGSFSRGKTLFSQQTHRYILYACGTFLIFFGLYFMFNYKGAAQLF”, the protein production entry was “failed”.
